Experimental data taken from article PMC12093976, “Characterization of 2-phenanthroyl-CoA reductase, an ATP-independent type III aryl-CoA reductase involved in anaerobic phenanthrene degradation” (Applied and Environmental Microbiology, 2025).

System: T1, CC(C)(COP(=O)(O)OP(=O)(O)OC[C@H]1O[C@@H](n2cnc3c(N)ncnc32)[C@H](O)[C@@H]1OP(=O)(O)O)[C@@H](O)C(=O)NCCC(=O)NCCSC(=O)c1ccc2c(ccc3ccccc32)c1
T1 construct: codon-optimized gene in pASG-IBA103, C-terminal twin-Strep-tag, E. coli BL21(DE3); 72 kDa monomer; FMN, FAD, [4Fe-4S]; primers encode N-terminal MKLFEPIK and C-terminal LAALH
Experiment: LC/MS of dihydro-2-phenanthroyl-CoA formation, initial rates
Type: biochemical, uncultured Desulfobacterium sp.
Conditions: dithionite-reduced methyl viologen as electron donor, 1 mM NADH, 50 µM FMN, 1 mM FAD, 50 mM HEPES pH 7.5, 30 °C, anoxic, substrate varied 2-100 µM
Text: LC/MS of dihydro-2-phenanthroyl-CoA formation, initial rates on 2-phenanthroyl-CoA reductase

## 2-phenanthroyl-CoA reductase (uncultured Desulfobacterium sp.)
  Km: 1.8 µM
  Vmax: 7.9 µmol/min/mg
